Assay [1] deals with human LILRA6 protein (human) (UniProt Q6PI73). The experiment in a line: ELISA, LILRA6 protein.
The target in assay [2] is human LILRB4 (human) (UniProt Q8NHJ6). The experiment in a line: cell-based or functional assay.
For assay [3] the target is unchanged. The experiment in a line: FACS, 293F-hLILRB4 cells.
In assay [4] the target is cynomolgus (Macaca fascicularis) LILRB4 (cynomolgus (Macaca fascicularis)). The experiment in a line: FACS, CHO-S-cynoLILRB4 cells.

human LILRB4 (human), sequence (Q8NHJ6 22-448): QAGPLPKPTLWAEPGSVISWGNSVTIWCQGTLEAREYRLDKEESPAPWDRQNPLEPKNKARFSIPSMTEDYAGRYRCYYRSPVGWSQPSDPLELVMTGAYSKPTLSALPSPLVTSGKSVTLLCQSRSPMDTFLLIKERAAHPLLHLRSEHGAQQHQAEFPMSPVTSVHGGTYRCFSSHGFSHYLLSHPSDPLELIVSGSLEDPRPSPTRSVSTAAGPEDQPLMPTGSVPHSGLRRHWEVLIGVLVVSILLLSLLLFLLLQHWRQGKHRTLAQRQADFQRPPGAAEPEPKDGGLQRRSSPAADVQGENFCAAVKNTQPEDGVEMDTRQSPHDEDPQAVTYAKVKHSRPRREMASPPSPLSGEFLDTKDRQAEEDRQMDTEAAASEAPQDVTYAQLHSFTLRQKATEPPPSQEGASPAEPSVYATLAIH
human LILRA6 protein (human), sequence (Q6PI73 24-447 limits assumed): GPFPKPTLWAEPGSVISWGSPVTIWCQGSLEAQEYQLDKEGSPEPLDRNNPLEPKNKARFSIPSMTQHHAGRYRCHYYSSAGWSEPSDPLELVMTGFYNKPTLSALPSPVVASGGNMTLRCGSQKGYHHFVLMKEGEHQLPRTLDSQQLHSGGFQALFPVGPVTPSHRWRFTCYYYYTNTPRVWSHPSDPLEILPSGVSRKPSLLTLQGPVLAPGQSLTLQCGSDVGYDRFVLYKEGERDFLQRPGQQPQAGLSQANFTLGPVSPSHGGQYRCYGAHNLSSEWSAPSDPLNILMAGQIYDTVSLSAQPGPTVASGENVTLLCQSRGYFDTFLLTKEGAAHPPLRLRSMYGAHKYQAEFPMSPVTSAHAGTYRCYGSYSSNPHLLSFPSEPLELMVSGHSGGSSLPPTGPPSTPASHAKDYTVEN

B1: NGM831 (antibody, V domains shown)
VH: EVQLQQSGPEVKPGASVKISCKASGYTFTDYNMDWVKQSHGKSEWIGYIYPSNGGTGYNQKFKSKATLTVDKSSNTAYMELHSLTSEDSAVYYCARVPYYDYLYYYAMDYWGQGTSVTVSS
VL: QIVLSQSPAILSASPGEKVTMACRASSSVSFMHWYQQKPGSSPQPWIYATSNLASGVPARFSGSGSGTSYSLTISRVEAEDAATYYCQQWSTNPYMYTFGGGTKLEIK
For the molecule B1, in assay [1], the ELISA(OD450) was found to be 1.32 OD450. In assay [2], this molecule had an ADCP (%) at 133.3 nM, macrophages and MV-4-11 cells of 6.37%; an EC50 (nM), ADCC on THP-1 cells of 488 nM; a FcγR stimulation (TNF-α, pg/mL) of 261 pg/mL; a Fold change (Compared to isotype) of 8.26 fold. For the same molecule, the Max cell cytotoxicity (%), ADCC on THP-1 cells in assay [2] is -6.89%. For the same molecule, in assay [3], the EC50 is 4.39 nM and the Max MFI was 30400 MFI. The molecule also came in with a Max MFI in assay [4] of 822 MFI.

B2: ch48-E11-H7-B5 (antibody, V domains shown)
VH: EVQLVESGGGLVKPGGSLKLSCAASGFTFSSYAMSWVRQTPEKRLEWVASITIGDDTYYPDSVKGRFTISRDHAKNILYLQVSSLRSEDTAMYSCARGVNSYGSSYRYFDVWGAGTTVTVSS
VL: DIVMTQSHKFMSTSVGDRVSITCKASQDVSTAVAWYQQKPGQSPKLLIYWASTRHTGVPDRFTGSGSGTDYTLTISSVQAEDLALYYCQQHYSIPFTFGAGTKLEK
For the molecule B2, in assay [1], the ELISA(OD450) came to 0.302 OD450.

The record behind these values is patent publication US20250361295A1.
